Our source for the EC50, Binding call and Mean fluorescence values is patent publication US9809653B2, “Anti-LAMP1 antibodies and antibody drug conjugates, and uses thereof” (SANOFI, priority 2012, dated 2017).

As a reminder, the EC50 is the concentration needed to bring the measured effect to its halfway point.

Assay [1] deals with T1, LAMP1 expressed on the surface of advanced human primary colon tumor CR-IGR-034P (Homo sapiens, UniProt P11279).
T1 construct: endogenous in cells; host or cells: enzymatically dissociated patient-derived xenograft tumour cells (e.g. CR-IGR-034P, LUN-NIC-014P, BRE-IGR-0159) and tumour cell lines
T1 sequence (P11279 29-417): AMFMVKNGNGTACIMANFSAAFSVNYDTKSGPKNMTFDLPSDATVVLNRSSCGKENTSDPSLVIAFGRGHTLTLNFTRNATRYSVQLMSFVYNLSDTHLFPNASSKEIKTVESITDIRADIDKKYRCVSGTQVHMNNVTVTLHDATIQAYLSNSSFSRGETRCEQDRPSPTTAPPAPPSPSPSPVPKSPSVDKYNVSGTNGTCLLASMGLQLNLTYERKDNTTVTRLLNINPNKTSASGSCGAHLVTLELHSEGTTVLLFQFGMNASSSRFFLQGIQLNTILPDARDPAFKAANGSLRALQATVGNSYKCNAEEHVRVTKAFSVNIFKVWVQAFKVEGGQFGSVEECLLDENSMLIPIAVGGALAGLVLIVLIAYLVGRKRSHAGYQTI
Nature of the assay: Apparent affinity to human primary colon tumor PDX by flow cytometry. Format: binding. The settings on record: dissociated PDX tumor cells, 45 min at 4° C., read-out: EC50 obtained with CR-IGR-034P. As to the method:
Advanced human primary colon tumor CR-IGR-034P was obtained from Patient-derived xenograft in mice. Tumor CR-IGR-034P was enzymatically dissociated using collagenase Type IV (Invitrogen; #17104-019) and deoxyribonuclease I (Invitrogen; #18047-019) for 1 h at 4° C. Cell viability was estimated by Viacount application using Guava® easyCyte™ 8HT Flow Cytometry System. […] 100 μL/well of goat anti-mouse IgG conjugated with Alexa647 (Invitrogen; #A2135) or goat anti-human IgG conjugated with Alexa488 (Invitrogen; #A11013) was added for 45 min at 4° C. and washed three times with PBS 1% BSA. The antibody binding was evaluated after centrifugation and resuspension of cells by adding 200 μl/well PBS 1% BSA and read using Guava® easyCyte™ 8HT Flow Cytometry System. EC50 values were estimated using BIOST@T-SPEED software. EC50 values obtained with the advanced human primary colon tumor CR-IGR-034P are listet in Table 3.
On the technique in general: A flow cytometer gives signals particle by particle.

For another assay, the target named is T2, hLAMP1_ΔGYQTI (Homo sapiens, UniProt P11279).
T2 construct: expressed in transfected cells; host or cells: 293-F (HEK293-derived), transient transfection, plasmid pXL5626
T2 sequence (P11279 with tags, fused parts or gaps limits assumed): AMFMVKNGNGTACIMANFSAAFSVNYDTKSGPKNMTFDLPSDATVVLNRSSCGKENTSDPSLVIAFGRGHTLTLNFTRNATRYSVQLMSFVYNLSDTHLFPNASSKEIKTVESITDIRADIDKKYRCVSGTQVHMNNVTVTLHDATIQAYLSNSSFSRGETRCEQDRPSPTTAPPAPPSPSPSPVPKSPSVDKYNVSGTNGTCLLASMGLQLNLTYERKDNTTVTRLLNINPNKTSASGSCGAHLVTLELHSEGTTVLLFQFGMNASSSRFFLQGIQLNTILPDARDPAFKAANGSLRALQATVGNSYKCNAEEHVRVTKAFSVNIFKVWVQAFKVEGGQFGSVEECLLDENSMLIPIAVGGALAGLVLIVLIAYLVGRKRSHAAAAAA
Put plainly: Binding onto membrane-anchored human LAMP1 (293-F cells) by flow cytometry. Conditions: pXL5626 hLAMP1_ΔGYQTI. As to the method: Different LAMP1 proteins were expressed at the cell membrane of HEK293 cells after transient expression from mammalian plasmids encoding the entire coding sequence of LAMP1 deleted of the intracellular lysosome-targeting motif GYQTI and substituted by a 5-Ala repeat sequence.
Two days post transfection cells were processed, analyzed by flow cytometry (Guava® easyCyte™ 8HT) as mentioned in example 4.7, and the mean fluorescence was recorded. This fluorescence represents a semi-quantitative assessment of binding.

For another assay, the target named is T3, mLAMP1_ΔGYQTI (Mus musculus, UniProt P11438).
T3 construct: expressed in transfected cells; host or cells: 293-F (HEK293-derived), transient transfection, plasmid pXL6009
T3 sequence (P11438 with tags, fused parts or gaps limits assumed): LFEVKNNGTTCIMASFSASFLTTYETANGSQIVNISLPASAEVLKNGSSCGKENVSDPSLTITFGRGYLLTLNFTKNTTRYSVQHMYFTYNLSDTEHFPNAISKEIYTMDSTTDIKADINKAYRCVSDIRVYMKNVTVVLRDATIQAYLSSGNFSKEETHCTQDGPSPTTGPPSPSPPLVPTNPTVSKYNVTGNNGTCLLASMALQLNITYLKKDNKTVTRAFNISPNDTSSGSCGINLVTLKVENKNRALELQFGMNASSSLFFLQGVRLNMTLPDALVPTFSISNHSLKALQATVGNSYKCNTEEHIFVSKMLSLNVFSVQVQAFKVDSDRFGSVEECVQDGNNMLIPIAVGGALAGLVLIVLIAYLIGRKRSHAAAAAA
Put plainly: Binding onto membrane-anchored murine LAMP1 (293-F cells) by flow cytometry. Conditions: pXL6009 mLAMP1_ΔGYQTI. The source says:
Different LAMP1 proteins were expressed at the cell membrane of HEK293 cells after transient expression from mammalian plasmids encoding the entire coding sequence of LAMP1 deleted of the intracellular lysosome-targeting motif GYQTI and substituted by a 5-Ala repeat sequence. Mammalian plasmids had similar expression signals as plasmids used to produce recombinant LAMP1 described in example 6.2. Table 14 below lists all the plasmids that were designed in order to confirm the results obtained with soluble LAMP1 protein by ELISA in example 6.3 and further characterize the binding domains of the anti-LAMP1 mAbs.
Each expression plasmid described in example 6.4 was complexed with 293Fectin™ in suspension-cultivated 293-F cells as using the protocol outlined in example 6.2. Two days post transfection cells were processed, analyzed by flow cytometry (Guava® easyCyte™ 8HT) as mentioned in example 4.7, and the mean fluorescence was recorded. This fluorescence represents a semi-quantitative assessment of binding.

B1: MAb2: murine monoclonal anti-LAMP1 antibody, VH SEQ ID NO: 8, VL SEQ ID NO: 12 (antibody, V domains shown)
VH: QVQLQQSAAELARPGASVKMSCKASGYTFTSYTMHWVKQRPGQGLEWIGYFNPSSGYPEYNQKFKDKTTLTADKSSNTAFIQLNSLTSEDSAVYYCSRGYYYGSRGYALDFWGQGASVTVSS
VL: NIVLTQSPVSLAVSLGQRATISCRASESVDINGNTFMHWYQQKPGQSPKLVIYAASNIESGVPARFSGSGSSTDFTFTIDPVEADDVATYYCQQNIEDPWTFGGGTKVEIK
modifications: antibod fragment; antibody fragment
As to B1, the EC50 in assay [1] worked out at 14 nM. Moreover, the Binding call with hLAMP1_ΔGYQTI (Table 17 Experiment no1) is listed as “binding”; with hLAMP1_ΔGYQTI (Table 18) it was “Binding”; in the assay with mLAMP1_ΔGYQTI (Table 17 Experiment no1), “No binding”; with mLAMP1_ΔGYQTI (Table 18) it was “No binding”. Also, the Mean fluorescence with hLAMP1_ΔGYQTI (Table 17 Experiment no1) is 1183; with hLAMP1_ΔGYQTI (Table 18), 757; with mLAMP1_ΔGYQTI (Table 17 Experiment no1) it was 21; in the assay with mLAMP1_ΔGYQTI (Table 18) it was 27.

B2: MAb1: murine monoclonal anti-LAMP1 antibody, VH SEQ ID NO: 1, VL SEQ ID NO: 5 (antibody, V domains shown)
VH: QVQLQQSGAELVKPGASVKMSCKASGYIFTNYNIHWVKKSPGQGLEWIGAIYPGNGDAPYSQKFKDKATLTADKSSSTTYMQLSRLTSEDSAVYYCVRANWDVAFAYWGQGTLVSVSA
VL: DIQMTQSPPSLSASLGGKVTITCKASQDIDRYMAWYQDKPGKGPRLLIHDTSTLQPGIPSRFSGSGSGRDYSFSISNLEPEDIATYYCLQYDNLWTFGGGTKLEIK
modifications: Antibody Fragment; antibody fragment
With B2, in assay [1], the EC50 was determined as 5 nM. In addition, the Binding call with hLAMP1_ΔGYQTI (Table 17 Experiment no1) was “Binding”; with hLAMP1_ΔGYQTI (Table 17 Experiment no2), “Full binding”; in the assay with hLAMP1_ΔGYQTI (Table 18), “Binding”; in the assay with mLAMP1_ΔGYQTI (Table 17 Experiment no1), “No binding”; in the assay with mLAMP1_ΔGYQTI (Table 17 Experiment no2), “No binding”. The Mean fluorescence with hLAMP1_ΔGYQTI (Table 17 Experiment no1) worked out at 1748; with hLAMP1_ΔGYQTI (Table 17 Experiment no2), 551; in the assay with hLAMP1_ΔGYQTI (Table 18) it was 914; in the assay with mLAMP1_ΔGYQTI (Table 17 Experiment no1), 4; with mLAMP1_ΔGYQTI (Table 17 Experiment no2) it was 2; with mLAMP1_ΔGYQTI (Table 18), 13.
